B1: Hammerhead Ribozyme (parent)
chain: ACCGGAUGUGCUUUCCGGUCUGAUGAGUCCGUGAGGACGAAACAG

Variants of: B1
Experiment: self-cleavage, relative activity (ratio to wild type); higher = more cleavage; co-transcriptional

Variant | self-cleavage
U13A G31C | 1.39
C30G A42G | 0.316
C16G G27A | 0.42
G25A U32A | 0.352
G22C G36C | 0.317
A23G A40U | 0.326
U19G A44G | 0.623
C2G A37U | 0.293
A23C A34C | 0.374
U12C G33A | 1.25
G5A U24A | 1.21
G4C U7A | 1.03
U21G A40C | 0.312
G4U G5A | 0.284
G17U G25C | 0.319
U9C G45C | 0.648
G22A A44U | 0.314
G8C C16A | 0.446
U21C A34U | 0.749
U28C A42G | 0.251
C29G C30A | 0.432
C11A C30U | 0.87
A23U U32A | 0.376
C16A G31C | 1.04

Variant | self-cleavage
U13C A23G | 0.419
U9C U24G | 0.948
G4U G45C | 0.324
G10U G31U | 0.736
G18U U19A | 0.34
A42U G45C | 0.404
U24C A37C | 1.02
G17A G33C | 0.713
A6G A34U | 0.82
G5C U28C | 0.33
C3A G27C | 0.422
U32A C38A | 0.681
A41G | 0.345
G18U U21G | 0.426
C11A G22U | 0.246
G5A G8A | 1.24
G5U G35A | 0.476
U13A G17U | 1.02
C30A C38U | 0.743
C16U A37G | 1.02
C30G G31U | 0.88
A34C A42G | 0.254
U21A A42G | 0.307
G10C G27C | 0.994

Variant | self-cleavage
U12C G31U | 1
G25A A44U | 0.343
C3G G4A | 0.283
C15U G36A | 0.734
C2G G10A | 0.383
U7C G36U | 0.422
C30U G33U | 1.18
U19A A37G | 0.326
C2U A44U | 0.646
G36C A41U | 0.294
U13C G35C | 0.774
A1C C43G | 0.285
A6G C38G | 0.448
A6G G33C | 0.597
A23C U24C | 0.505
C2A C11G | 0.828
G10C G31A | 1.25
U19C U24A | 0.776
C20G A26U | 0.29
A6C G36U | 0.34
A6C G36C | 0.326
U19C A23G | 0.369
U9G G17C | 0.32
G39C G45U | 0.328

Variant | self-cleavage
G4U G27U | 0.294
G4U C43U | 0.261
C30U A40C | 0.514
A1G A44G | 2.11
G22A C43A | 0.411
G8C G31A | 1.06
C3G C16A | 0.39
A23G A42C | 0.31
G22C C38U | 0.315
G4C G17U | 0.291
G25C A41C | 0.359
A26C C30U | 0.753
A1C U12G | 0.325
G25A C43G | 0.338
G27U C29U | 0.316
C3A U13A | 1.33
U19C A26C | 0.367
G4C G35A | 0.297
C15G A34G | 0.833
C2A G22C | 0.353
G10C G45A | 0.996
C11U A37C | 0.987
U28A A42U | 0.341
G4C G27C | 0.412

Variant | self-cleavage
G18U U28G | 0.581
G17C A26G | 0.353
A6U U32C | 0.988
G18C U28A | 0.415
C11A U21C | 0.848
U24A G35U | 0.791
C20U A40U | 0.246
A6U C43A | 0.326
G33A A37C | 1.03
U7G G31C | 0.968
G25C G33U | 0.231
U12A C29A | 0.634
U9G U14C | 0.41
G27U U32C | 0.495
G22C A40U | 0.342
G17A G39U | 0.316
G10A A40G | 0.346
G10U G27C | 0.861
G8A G10C | 1.46
U14G G27A | 0.757
C11U G36U | 0.669
C16G G31A | 1.16
U7C U32C | 0.949
G5U A37G | 0.46

Variant | self-cleavage
U13G A40C | 0.454
G39U A40G | 0.361
C15U C30A | 0.696
A6G G18C | 0.351
C16A G17A | 0.374
U9C C38U | 1.1
U32A A37G | 1.16
A26G G45C | 0.389
C3A U19C | 0.277
C15U U28G | 0.568
U14A U24A | 0.627
U32C G36C | 0.553
U12A G18C | 0.565
U24A A34C | 0.88
U12G G17C | 0.436
U24A A40G | 0.337
C16A G36C | 0.38
C11A G18U | 1.04
U9A | 1.02
U28C G39A | 0.291
U21A U28A | 0.46
G18C C38G | 0.387
A6U G10U | 0.747
A6U G10A | 0.75

Variant | self-cleavage
G4U U24A | 0.442
A1U G18U | 0.475
G22U A44C | 0.432
C2U C43G | 0.372
U9A G39C | 0.288
G5A U19G | 0.373
U21A A37U | 0.502
C2U G18C | 0.869
U24A C29G | 0.79
U21C C43G | 0.415
G22U C30G | 0.277
C30A A40C | 0.466
U7A U13A | 1.42
U13C A26U | 0.622
U13C U24G | 0.837
C11G U12C | 1.07
U13A U21A | 0.707
A26C A41U | 0.299
U24G A41C | 0.322
A1C C3U | 0.345
C2U U13C | 1.34
G10A A34G | 0.836
C29G A34C | 0.56

Reference: the RNAGym collection of RNA variant scans (doi:10.7554/elife.80360)
